Paper PMC9352680, “A comprehensive thermodynamic model for RNA binding by the Saccharomyces cerevisiae Pumilio protein PUF4”
Positions count from the first letter of the chain named. Names may count otherwise.

T1: PUF4 RNA-binding domain (Saccharomyces cerevisiae, UniProt P25339 537-888)
T1 sequence: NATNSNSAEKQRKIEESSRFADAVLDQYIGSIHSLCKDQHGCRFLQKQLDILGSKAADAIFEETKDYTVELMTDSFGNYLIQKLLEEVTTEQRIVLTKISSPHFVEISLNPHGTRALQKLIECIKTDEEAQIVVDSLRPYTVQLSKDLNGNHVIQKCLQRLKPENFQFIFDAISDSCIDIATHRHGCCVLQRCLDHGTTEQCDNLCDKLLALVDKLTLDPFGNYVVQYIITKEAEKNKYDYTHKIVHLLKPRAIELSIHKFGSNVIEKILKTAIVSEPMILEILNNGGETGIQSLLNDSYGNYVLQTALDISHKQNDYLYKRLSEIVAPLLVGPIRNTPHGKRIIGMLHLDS

B1: Id_ii_S4_P4E.2_K4.1_C4.2_[T-1A]_H4.1_A4.1_F4.1_T4.2_[G10A] (ssRNA)
RNA: UUUGACAACUGAUCGUUCUUUCUCAUGUAUAUUAAUUUCUUUCUCGAUCAGUUGUCUUU
B2: Id_ii_S4_P4E.3_K4.2_C4.2_[C-2T]_[T-1G]_H4.2_A4.1_F4.1_T4.2_[G10T]_[T11C] (ssRNA)
RNA: B1 RNA with C24U, A25G, G27A, A35U, U36C
B3: Id_ii_S4_P4E.2_K4.1_C4.2_[T-1A]_H4.1_A4.1_F4.1_T4.2_[T11G] (ssRNA)
RNA: B1 RNA with A35G, U36G
B4: Id_ii_S4_P4E.3_K4.2_C4.2_H4.2_A4.1_F4.1_T4.2_[G10A]_[T11C] (ssRNA)
RNA: B1 RNA with A25U, G27A, U36C
B5: Id_ii_S4_P4E.3_K4.2_C4.2_[C-2G]_H4.2_A4.1_F4.1_T4.2_[G10A] (ssRNA)
RNA: B1 RNA with C24G, A25U, G27A
B6: Id_ii_S4_P4E.3_K4.2_C4.2_[C-2T]_H4.2_A4.1_F4.1_T4.2_[G10T]_[T11G] (ssRNA)
RNA: B1 RNA with C24U, A25U, G27A, A35U, U36G
B7: Id_ii_S4_P4E.3_K4.2_C4.2_H4.2_A4.1_F4.1_T4.2_[G10T]_[T11C] (ssRNA)
RNA: B1 RNA with A25U, G27A, A35U, U36C
B8: Id_ii_S4_P4E.3_K4.2_C4.2_[C-2A]_[T-1A]_H4.2_A4.1_F4.1_T4.2_[G10C]_[T11G] (ssRNA)
RNA: B1 RNA with C24A, G27A, A35C, U36G
B9: Id_ii_S4_P4E.3_K4.2_C4.2_[C-2T]_[T-1G]_H4.2_A4.1_F4.1_T4.2_[G10T] (ssRNA)
RNA: B1 RNA with C24U, A25G, G27A, A35U
B10: Id_ii_S4_P4E.3_K4.2_C4.2_[C-2A]_H4.2_A4.1_F4.1_T4.2_[G10C]_[T11A] (ssRNA)
RNA: B1 RNA with C24A, A25U, G27A, A35C, U36A
B11: Id_ii_S4_P4E.3_K4.2_C4.2_[C-2T]_H4.2_A4.1_F4.1_T4.2_[G10C]_[T11G] (ssRNA)
RNA: B1 RNA with C24U, A25U, G27A, A35C, U36G
B12: Id_ii_S4_P4E.3_K4.2_C4.2_[C-2T]_[T-1A]_H4.2_A4.1_F4.1_T4.2_[G10A]_[T11A] (ssRNA)
RNA: B1 RNA with C24U, G27A, U36A
B13: Id_ii_S4_P4E.3_K4.2_C4.2_[C-2T]_[T-1C]_H4.2_A4.1_F4.1_T4.2_[G10T]_[T11A] (ssRNA)
RNA: B1 RNA with C24U, A25C, G27A, A35U, U36A
B14: Id_ii_S4_P4E.3_K4.2_C4.2_[C-2G]_[T-1C]_H4.2_A4.1_F4.1_T4.2_[G10T]_[T11C] (ssRNA)
RNA: B1 RNA with C24G, A25C, G27A, A35U, U36C
B15: Id_ii_S4_P4E.3_K4.2_C4.2_[C-2T]_H4.2_A4.1_F4.1_T4.2_[G10T]_[T11A] (ssRNA)
RNA: B1 RNA with C24U, A25U, G27A, A35U, U36A
B16: Id_ii_S4_P4E.2_K4.1_C4.2_H4.1_A4.1_F4.1_T4.2_[G10A]_[T11A] (ssRNA)
RNA: B1 RNA with A25U, U36A
B17: Id_ii_S4_P4E.2_K4.1_C4.2_H4.1_A4.1_F4.1_T4.2_[G10T] (ssRNA)
RNA: B1 RNA with A25U, A35U
B18: Id_ii_S4_P4E.3_K4.2_C4.2_[C-2T]_[T-1G]_H4.2_A4.1_F4.1_T4.2_[G10A]_[T11C] (ssRNA)
RNA: B1 RNA with C24U, A25G, G27A, U36C
B19: Id_ii_S4_P4E.3_K4.2_C4.2_[T-1C]_H4.2_A4.1_F4.1_T4.2_[G10A] (ssRNA)
RNA: B1 RNA with A25C, G27A
B20: Id_ii_S4_P4E.3_K4.2_C4.2_[C-2T]_[T-1C]_H4.2_A4.1_F4.1_T4.2_[G10A] (ssRNA)
RNA: B1 RNA with C24U, A25C, G27A
B21: Id_ii_S4_P4E.2_K4.1_C4.2_H4.1_A4.1_F4.1_T4.2_[G10A] (ssRNA)
RNA: B1 RNA with A25U
B22: Id_ii_S4_P4E.3_K4.2_C4.2_[T-1G]_H4.2_A4.1_F4.1_T4.2 (ssRNA)
RNA: B1 RNA with A25G, G27A, A35G
B23: Id_ii_S4_P4E.3_K4.2_C4.2_[C-2G]_[T-1G]_H4.2_A4.1_F4.1_T4.2_[G10A] (ssRNA)
RNA: B1 RNA with C24G, A25G, G27A
B24: Id_ii_S4_P4E.3_K4.2_C4.2_[C-2A]_[T-1C]_H4.2_A4.1_F4.1_T4.2_[G10T]_[T11C] (ssRNA)
RNA: B1 RNA with C24A, A25C, G27A, A35U, U36C
B25: Id_ii_S4_P4E.3_K4.2_C4.2_[C-2T]_H4.2_A4.1_F4.1_T4.2_[G10C]_[T11C] (ssRNA)
RNA: B1 RNA with C24U, A25U, G27A, A35C, U36C
B26: Id_ii_S4_P4E.3_K4.2_C4.2_[C-2T]_[T-1C]_H4.2_A4.1_F4.1_T4.2_[G10C]_[T11A] (ssRNA)
RNA: B1 RNA with C24U, A25C, G27A, A35C, U36A
B27: Id_ii_S4_P4E.3_K4.2_C4.2_[T-1A]_H4.2_A4.1_F4.1_T4.2_[G10C]_[T11A] (ssRNA)
RNA: B1 RNA with G27A, A35C, U36A
B28: Id_ii_S4_P4E.3_K4.2_C4.2_[C-2G]_H4.2_A4.1_F4.1_T4.2_[G10C] (ssRNA)
RNA: B1 RNA with C24G, A25U, G27A, A35C
B29: Id_ii_S4_P4E.3_K4.2_C4.2_[C-2T]_[T-1A]_H4.2_A4.1_F4.1_T4.2_[G10C]_[T11G] (ssRNA)
RNA: B1 RNA with C24U, G27A, A35C, U36G
B30: Id_ii_S4_P4E.3_K4.2_C4.2_H4.2_A4.1_F4.1_T4.2_[G10C] (ssRNA)
RNA: B1 RNA with A25U, G27A, A35C
B31: Id_ii_S4_P4E.3_K4.2_C4.2_[C-2T]_[T-1C]_H4.2_A4.1_F4.1_T4.2_[G10T]_[T11C] (ssRNA)
RNA: B1 RNA with C24U, A25C, G27A, A35U, U36C
B32: Id_ii_S4_P4E.3_K4.2_C4.2_[T-1C]_H4.2_A4.1_F4.1_T4.2_[G10C]_[T11G] (ssRNA)
RNA: B1 RNA with A25C, G27A, A35C, U36G
B33: Id_ii_S4_P4E.3_K4.2_C4.2_[C-2A]_[T-1C]_H4.2_A4.1_F4.1_T4.2_[G10T]_[T11A] (ssRNA)
RNA: B1 RNA with C24A, A25C, G27A, A35U, U36A
B34: Id_ii_S4_P4E.3_K4.2_C4.2_[T-1G]_H4.2_A4.1_F4.1_T4.2_[G10A] (ssRNA)
RNA: B1 RNA with A25G, G27A
B35: Id_ii_S4_P4E.3_K4.2_C4.2_[C-2G]_H4.2_A4.1_F4.1_T4.2_[G10T] (ssRNA)
RNA: B1 RNA with C24G, A25U, G27A, A35U
B36: Id_ii_S4_P4E.3_K4.2_C4.2_[C-2A]_[T-1A]_H4.2_A4.1_F4.1_T4.2_[G10C]_[T11C] (ssRNA)
RNA: B1 RNA with C24A, G27A, A35C, U36C
B37: Id_ii_S4_P4E.3_K4.2_C4.2_[T-1G]_H4.2_A4.1_F4.1_T4.2_[G10T]_[T11C] (ssRNA)
RNA: B1 RNA with A25G, G27A, A35U, U36C
B38: Id_ii_S4_P4E.3_K4.2_C4.2_H4.2_A4.1_F4.1_T4.2_[G10A] (ssRNA)
RNA: B1 RNA with A25U, G27A
B39: Id_ii_S4_P4E.3_K4.2_C4.2_[C-2A]_[T-1A]_H4.2_A4.1_F4.1_T4.2_[G10T]_[T11C] (ssRNA)
RNA: B1 RNA with C24A, G27A, A35U, U36C
B40: Id_ii_S4_P4E.2_K4.1_C4.2_H4.1_A4.1_F4.1_T4.2_[G10C] (ssRNA)
RNA: B1 RNA with A25U, A35C

Molecular target: T1, PUF4 RNA-binding domain
Assay: Mg; RNA-MaP; 20 mM Na-HEPES pH 7.4, 30 mM KOAc, 0.75 mM MgCl2, 0.1% Tween-20, 5% glycerol, 0.1 mg/mL BSA, 2 mM DTT; 25 C; 0.0125-409.6 nM protein
Details: tags: N-His6-TEV cleaved; C-SNAP kept, Cy3B-labelled; label: tethered on chip by stalled RNA polymerase

Binder	Kd
UCUCUUUGUAUAAUUAUCUCUU (ssRNA) [Ia_S1_P5E.1_K5.1_C5.1_H5.1_A5.1_[T6A]_F5.1_T5.1]	5.23 nM
UCUCUUUUUAUUCUUAUCUCUU (ssRNA) [Ib_S1_P5E.1_K5.1_C5.1_H5.1_[G2T]_A5.1_[A7C]_F5.1_T5.1]	> 2300 nM
UCUCUUUCUAUUUUUAUCUCUU (ssRNA) [Ib_S1_P5E.1_K5.1_C5.1_H5.1_[G2C]_A5.1_[A7T]_F5.1_T5.1]	> 2300 nM
UCUCUUUUUAUUUUUAUCUCUU (ssRNA) [Ib_S1_P5E.1_K5.1_C5.1_H5.1_[G2T]_A5.1_[A7T]_F5.1_T5.1]	> 2300 nM
B1	0.453 nM
B2	3.99 nM
B3	1.11 nM
B4	15.9 nM
B5	62 nM
B6	8.62 nM
B7	6.46 nM
B8	189 nM
B9	1.83 nM
B10	12.2 nM
B11	10.1 nM
B12	42 nM
B13	12 nM
B14	19.6 nM
B15	25.9 nM
B16	0.422 nM
B17	0.116 nM
B18	3.87 nM
B19	4.86 nM

Binder	Kd
B20	10.2 nM
B21	0.324 nM
B22	8.91 nM
B23	125 nM
B24	6.68 nM
B25	9.36 nM
B26	12.6 nM
B27	23 nM
B28	38.1 nM
B29	28.4 nM
B30	5.15 nM
B31	5.07 nM
B32	9.21 nM
B33	24.6 nM
B34	12.4 nM
B35	10.6 nM
B36	47.7 nM
B37	13.1 nM
B38	10.8 nM
B39	39.7 nM
B40	0.434 nM
UCUCUUUAUAUAAUUAUCUCUU (ssRNA) [Ib_S1_P5E.1_K5.1_C5.1_H5.1_[G2A]_A5.1_[T6A]_F5.1_T5.1]	1010 nM
